T1: DFNB31_1, Q9P202
T1 sequence (Q9P202 135-233, limits assumed, looked up): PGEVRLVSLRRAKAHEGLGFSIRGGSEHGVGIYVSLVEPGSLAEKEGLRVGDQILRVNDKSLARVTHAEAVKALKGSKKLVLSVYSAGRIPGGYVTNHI

T2: DLG3_2, Q92796
T2 sequence (Q92796 221-321, limits assumed, looked up): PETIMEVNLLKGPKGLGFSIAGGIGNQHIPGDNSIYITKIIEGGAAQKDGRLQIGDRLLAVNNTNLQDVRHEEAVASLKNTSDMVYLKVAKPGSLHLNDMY

T3: HTRA4, P83105
T3 sequence (P83105 378-476, limits assumed, looked up): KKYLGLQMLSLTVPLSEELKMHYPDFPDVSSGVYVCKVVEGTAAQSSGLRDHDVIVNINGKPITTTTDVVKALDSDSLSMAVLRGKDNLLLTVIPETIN

T4: LIN7B, Q9HAP6
T4 sequence (Q9HAP6 88-185, limits assumed, looked up): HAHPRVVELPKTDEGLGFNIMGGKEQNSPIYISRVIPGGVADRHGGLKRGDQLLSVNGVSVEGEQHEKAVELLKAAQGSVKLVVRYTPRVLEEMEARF

T5: MPDZ_10, O75970
T5 sequence (O75970 1624-1722, limits assumed, looked up): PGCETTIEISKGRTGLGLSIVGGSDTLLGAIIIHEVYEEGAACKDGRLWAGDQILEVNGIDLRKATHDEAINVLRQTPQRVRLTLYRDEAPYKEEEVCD

T6: NHERF3_1, Q5T2W1
T6 sequence (Q5T2W1 4-100, limits assumed, looked up): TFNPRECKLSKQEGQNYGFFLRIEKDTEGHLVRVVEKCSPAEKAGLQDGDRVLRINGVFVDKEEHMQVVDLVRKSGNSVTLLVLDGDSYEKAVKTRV

T7: RAPGEF6, Q8TEU7
T7 sequence (Q8TEU7 525-625, limits assumed, looked up): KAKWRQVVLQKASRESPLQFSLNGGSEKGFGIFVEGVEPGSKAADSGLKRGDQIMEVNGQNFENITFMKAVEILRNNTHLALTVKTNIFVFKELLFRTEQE

T8: SNTA1, Q13424
T8 sequence (Q13424 82-180, limits assumed, looked up): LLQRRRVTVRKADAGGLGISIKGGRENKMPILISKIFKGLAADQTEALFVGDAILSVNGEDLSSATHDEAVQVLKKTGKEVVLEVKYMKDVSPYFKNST

T9: SNTG1, Q9NSN8
T9 sequence (Q9NSN8 52-150, limits assumed, looked up): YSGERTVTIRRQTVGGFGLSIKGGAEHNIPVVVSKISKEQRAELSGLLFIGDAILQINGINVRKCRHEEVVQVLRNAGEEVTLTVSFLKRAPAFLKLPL

T10: SNTG2, Q9NY99
T10 sequence (Q9NY99 68-166, limits assumed, looked up): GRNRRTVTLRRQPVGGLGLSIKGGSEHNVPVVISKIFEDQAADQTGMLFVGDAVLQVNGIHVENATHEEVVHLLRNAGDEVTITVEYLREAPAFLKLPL

T11: TIAM2, Q8IVF5
T11 sequence (Q8IVF5 885-986, limits assumed, looked up): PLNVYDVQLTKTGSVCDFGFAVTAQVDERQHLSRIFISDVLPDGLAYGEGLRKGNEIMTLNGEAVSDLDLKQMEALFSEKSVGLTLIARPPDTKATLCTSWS


Assays:
Test in all cases: holdup assay
Parameters in all cases: key: below the threshold = too weak to quantify, mostly under pKd 3.1 to 4
Conditions in all cases: plain residues with an end cap or a label only (N-terminal biotin on a linker: ado-ado)
CASK, O14936 = target: CASK, O14936
Chain of CASK, O14936 (O14936 487-570): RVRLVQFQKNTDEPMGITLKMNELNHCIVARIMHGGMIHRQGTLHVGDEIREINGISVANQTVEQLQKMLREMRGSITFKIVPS

DFNB31_1, Q9P202 = target: T1, DFNB31_1, Q9P202
DLG3_2, Q92796 = target: T2, DLG3_2, Q92796
DLG4_3, P78352 = target: DLG4_3, P78352
Chain of DLG4_3, P78352 (P78352 306-403): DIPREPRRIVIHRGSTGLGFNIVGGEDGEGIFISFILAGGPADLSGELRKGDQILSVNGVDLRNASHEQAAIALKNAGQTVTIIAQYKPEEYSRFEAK

DLG5_1, Q8TDM6 = target: DLG5_1, Q8TDM6
Chain of DLG5_1, Q8TDM6 (Q8TDM6 617-713): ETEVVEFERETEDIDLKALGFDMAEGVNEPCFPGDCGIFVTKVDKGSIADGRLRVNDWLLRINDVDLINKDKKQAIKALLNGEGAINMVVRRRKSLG

FRMPD2_2, Q68DX3 = target: FRMPD2_2, Q68DX3
Chain of FRMPD2_2, Q68DX3 (Q68DX3 944-1038): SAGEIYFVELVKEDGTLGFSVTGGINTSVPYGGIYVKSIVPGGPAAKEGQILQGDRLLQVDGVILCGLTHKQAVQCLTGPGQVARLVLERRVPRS

GOPC, Q9HD26 = target: GOPC, Q9HD26
GORASP2, Q9H8Y8 = target: GORASP2, Q9H8Y8
GRIP2_5, Q9C0E4 = target: GRIP2_5, Q9C0E4
Chain of GRIP2_5, Q9C0E4 (Q9C0E4 544-642): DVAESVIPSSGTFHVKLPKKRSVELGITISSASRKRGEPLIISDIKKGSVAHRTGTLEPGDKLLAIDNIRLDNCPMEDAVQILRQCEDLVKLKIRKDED

HTRA4, P83105 = target: T3, HTRA4, P83105
IL16_1, Q14005 = target: IL16_1, Q14005
Chain of IL16_1, Q14005 (Q14005 210-306): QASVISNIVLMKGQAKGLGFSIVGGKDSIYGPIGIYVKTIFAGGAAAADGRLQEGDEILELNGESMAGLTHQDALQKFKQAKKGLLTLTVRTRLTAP

IL16_4, Q14005 = target: IL16_4, Q14005
Chain of IL16_4, Q14005 (Q14005 1229-1329): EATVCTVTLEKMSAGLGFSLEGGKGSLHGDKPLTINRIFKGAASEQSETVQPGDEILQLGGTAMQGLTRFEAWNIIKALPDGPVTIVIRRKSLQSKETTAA

Inadl_8, Q8NI35 = target: Inadl_8, Q8NI35
Chain of Inadl_8, Q8NI35 (Q8NI35 1425-1530): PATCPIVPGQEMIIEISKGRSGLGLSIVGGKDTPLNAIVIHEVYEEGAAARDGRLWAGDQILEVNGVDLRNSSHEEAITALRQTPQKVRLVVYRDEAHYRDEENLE

LIMK2, P53671 = target: LIMK2, P53671
Chain of LIMK2, P53671 (P53671 143-248): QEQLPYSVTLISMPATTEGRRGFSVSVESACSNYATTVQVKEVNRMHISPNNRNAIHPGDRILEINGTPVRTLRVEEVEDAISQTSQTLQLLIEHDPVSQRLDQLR

LIN7B, Q9HAP6 = target: T4, LIN7B, Q9HAP6
MPDZ_10, O75970 = target: T5, MPDZ_10, O75970
NHERF3_1, Q5T2W1 = target: T6, NHERF3_1, Q5T2W1
NOS1, P29475 = target: NOS1, P29475
Chain of NOS1, P29475 (P29475 9-101): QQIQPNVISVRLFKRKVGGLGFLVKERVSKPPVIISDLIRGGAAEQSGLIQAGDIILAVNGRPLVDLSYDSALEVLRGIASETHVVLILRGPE

PARD3_3, Q8TEW0 = target: PARD3_3, Q8TEW0
Chain of PARD3_3, Q8TEW0 (Q8TEW0 582-685): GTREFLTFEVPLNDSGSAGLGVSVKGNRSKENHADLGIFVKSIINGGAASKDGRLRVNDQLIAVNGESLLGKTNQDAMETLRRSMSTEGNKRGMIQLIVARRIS

PDLIM1, O00151 = target: PDLIM1, O00151
Chain of PDLIM1, O00151 (O00151 1-87): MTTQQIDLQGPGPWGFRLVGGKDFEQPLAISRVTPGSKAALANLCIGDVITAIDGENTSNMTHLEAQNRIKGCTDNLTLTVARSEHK

RAPGEF6, Q8TEU7 = target: T7, RAPGEF6, Q8TEU7
SCRIB_1, Q14160 = target: SCRIB_1, Q14160
Chain of SCRIB_1, Q14160 (Q14160 718-814): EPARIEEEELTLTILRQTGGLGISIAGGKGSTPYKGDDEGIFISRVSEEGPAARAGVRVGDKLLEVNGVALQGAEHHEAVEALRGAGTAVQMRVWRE

SNTA1, Q13424 = target: T8, SNTA1, Q13424
SNTG1, Q9NSN8 = target: T9, SNTG1, Q9NSN8
SNTG2, Q9NY99 = target: T10, SNTG2, Q9NY99
TIAM2, Q8IVF5 = target: T11, TIAM2, Q8IVF5

pKd (CASK, O14936)	pKd (DFNB31_1, Q9P202)	pKd (DLG3_2, Q92796)	pKd (DLG4_3, P78352)	pKd (DLG5_1, Q8TDM6)	pKd (FRMPD2_2, Q68DX3)	pKd (GOPC, Q9HD26)	pKd (GORASP2, Q9H8Y8)	pKd (GRIP2_5, Q9C0E4)	pKd (HTRA4, P83105)	pKd (IL16_1, Q14005)	pKd (IL16_4, Q14005)	pKd (Inadl_8, Q8NI35)	pKd (LIMK2, P53671)	pKd (LIN7B, Q9HAP6)	pKd (MPDZ_10, O75970)	pKd (NHERF3_1, Q5T2W1)	pKd (NOS1, P29475)	pKd (PARD3_3, Q8TEW0)	pKd (PDLIM1, O00151)	Binder	other results
below the threshold	below the threshold	below the threshold	below the threshold	below the threshold	below the threshold	below the threshold	below the threshold	below the threshold	below the threshold	below the threshold	below the threshold	below the threshold	below the threshold	below the threshold	below the threshold	3.48	below the threshold	3.97	4.18	IPLDGETEEL [MYOZ1, Q9NP98]	pKd (RAPGEF6, Q8TEU7): below the threshold; pKd (SCRIB_1, Q14160): below the threshold; pKd (SNTA1, Q13424): below the threshold; pKd (SNTG1, Q9NSN8): below the threshold; pKd (SNTG2, Q9NY99): below the threshold; pKd (TIAM2, Q8IVF5): below the threshold
below the threshold	3.83	4.77	4.27	below the threshold	3.8	3.85	4.06	below the threshold	3.92	4.83	below the threshold	4.15	below the threshold	below the threshold	below the threshold	4.3	below the threshold	below the threshold	below the threshold	PKRSFIESNV [TANC1, Q9C0D5]	pKd (RAPGEF6, Q8TEU7): below the threshold; pKd (SCRIB_1, Q14160): 5.2; pKd (SNTA1, Q13424): 4.77; pKd (SNTG1, Q9NSN8): 4.95; pKd (SNTG2, Q9NY99): 4.71; pKd (TIAM2, Q8IVF5): below the threshold
below the threshold	below the threshold	4.21	below the threshold	below the threshold	below the threshold	below the threshold	below the threshold	below the threshold	below the threshold	below the threshold	3.63	below the threshold	below the threshold	3.78	below the threshold	below the threshold	below the threshold	below the threshold	below the threshold	QKNRKAQEDL [CES3, Q6UWW8]	pKd (RAPGEF6, Q8TEU7): below the threshold; pKd (SCRIB_1, Q14160): below the threshold; pKd (SNTA1, Q13424): below the threshold; pKd (SNTG1, Q9NSN8): below the threshold; pKd (SNTG2, Q9NY99): below the threshold; pKd (TIAM2, Q8IVF5): 4.08
below the threshold	4.61	4.53	4.11	below the threshold	3.57	4.41	below the threshold	below the threshold	below the threshold	3.62	3.61	below the threshold	below the threshold	4.45	below the threshold	5.38	3.84	3.59	3.65	RHGSCVETSL [TMEM151B, Q8IW70]	pKd (RAPGEF6, Q8TEU7): below the threshold; pKd (SCRIB_1, Q14160): 5.5; pKd (SNTA1, Q13424): 4.82; pKd (SNTG1, Q9NSN8): 4.45; pKd (SNTG2, Q9NY99): 4.8; pKd (TIAM2, Q8IVF5): below the threshold
below the threshold	below the threshold	4	below the threshold	below the threshold	below the threshold	below the threshold	4.72	below the threshold	4.97	below the threshold	3.77	below the threshold	below the threshold	3.56	below the threshold	below the threshold	3.64	4.98	below the threshold	DDEDRLVIEI [ZNF831, Q5JPB2]	pKd (RAPGEF6, Q8TEU7): below the threshold; pKd (SCRIB_1, Q14160): below the threshold; pKd (SNTA1, Q13424): below the threshold; pKd (SNTG1, Q9NSN8): below the threshold; pKd (SNTG2, Q9NY99): below the threshold; pKd (TIAM2, Q8IVF5): 3.9
below the threshold	3.51	below the threshold	below the threshold	below the threshold	below the threshold	3.58	3.81	below the threshold	4.36	below the threshold	3.77	3.55	below the threshold	below the threshold	3.49	3.48	4.18	3.51	below the threshold	QMNQTLPVQV [EPHB3, P54753]	pKd (RAPGEF6, Q8TEU7): below the threshold; pKd (SCRIB_1, Q14160): below the threshold; pKd (SNTA1, Q13424): below the threshold; pKd (SNTG1, Q9NSN8): below the threshold; pKd (SNTG2, Q9NY99): below the threshold; pKd (TIAM2, Q8IVF5): below the threshold

Source: paper PMC9482650, “Quantitative fragmentomics allow affinity mapping of interactomes” (Nature Communications, 2022)
